For three molecules, OD450 nm, ratio (OD450 to WT OD450) and rank by relative ELISA signal across the dilution series (1 = highest) results are on record in US12649778.

The target in assay [1] is Peptide 1593 (…) (Mycobacterium tuberculosis). Nature of the assay: ELISA, NNK clone supernatant on coated peptide (22 hits). A general note: An ELISA detects its analyte on a solid surface through an enzyme-linked reagent.
The target is the same in assay [2]. Nature of the assay: ELISA, NNK clone supernatant on coated peptide.
The target in assay [3] is Peptide 2004 (…) (Mycobacterium tuberculosis).

Changes are numbered by the printed parent chain. In names and notes the source's numbering stands. Several values for one entry are separate records, joined by “and”; a condition that tells them apart may be missing. Equal values may be shown once.

B1: 65D3 chimeric Fab, NNK library L2 mutant S to M (VL S24M) (Fab, V domains shown)
VH: QSLEESGGRLVTPGGSLTLTCTVSGFSLSTHDISWVRQAPGKGLEWIGVIARRGSTYYASWAKGRFTISKTSTTVDLKITSPTIEDTATYFCAREEFDFWGQGTLVTVSS
VL: AVLTQTASPVSAAVGGTVTISCQMSQSVYNNKELSWFQQKPGQPPKLLISYASTLASGVPSRFKGSGSGTQFTLTISDLECDDAATYYCLGGYASTIDMWAFGGGTEVVVK
B1: in assay [1], the OD450 nm came out at 1.09 OD450 and the ratio (OD450 to WT OD450) is 1.31 fold of WT. In assay [2], the OD450 nm is 1.15 OD450 and 1.09 OD450; the ratio (OD450 to WT OD450) is 1.38 fold of WT and 1.31 fold of WT.

B2: 65D3 chimeric Fab, NNK library L2 mutant S to T (VL S24T) (Fab, V domains shown)
VH: B1 VH
VL: B1 VL with M24T
B2: in assay [1], the OD450 nm was 1.07 OD450 and the ratio (OD450 to WT OD450) is 1.29 fold of WT. Besides, in assay [2], the OD450 nm is 1.01 OD450 and 1.07 OD450; the ratio (OD450 to WT OD450) is 1.21 fold of WT and 1.29 fold of WT.

B3: Antibody 74D3-1 (antibody, V domains shown)
VH: QSVEESGGRLVTPGTPLTLTCTVSGIDLSNNAMGWVRQAPGEGLEWIGTIYASGNTYYASWAKGRFAISKTSTTVDLKMTSLTAADTATYFCARLFNIWGPGTLVTVSS
VL: ADIVLTQSPASVSSAVGGTVTINCQASQSVYDNKNLSWFQQKPGQPPKQLIYAASTLASGVPSRFKGSGSGTQFTLTISGMQCDDAATYYCGGRDSGNIYDFGGGTEVVVK
Molecule B3 returned a rank by relative ELISA signal across the dilution series (1 = highest) in assay [3] of 9.
